In patent publication US6730828B1, “Isolated nucleic acids encoding a wheat glutathione transferase, plants transformed therewith and methods of use thereof” (Aventis Agriculture Limited, priority 1997, dated 2004):

How the values were obtained:
[1] = GST activity toward herbicide fenoxaprop-ethyl (HPLC-based assay); format: biochemical
Method: (§1) The purified isoenzymes were assayed for GST activity toward herbicides using the HPLC-based assays described by Edwards R. and Cole D. J. (Pesticide Biochemistry and Physiology Vol. 54, pp96-104 (1996)) and the results are presented in Table 2. […] These isoenzymes had additional activities as glutathione peroxidases able to reduce linoleic acid hydroperoxide, a major reaction product formed during membrane peroxidation in plants (Williamson and Beverly. J. Cereal Sci. 8, 1988, 155-163).
(§2) To assay the recombinant fusion proteins for GST activity, the E. coli were grown in the presence of IPTG and then pelleted by centrifugation. The bacteria were then lysed by sonication and the protein precipitated using 80% ammonium sulphate. After resuspension and desalting, GSTs were purified by affinity chromatography. The WIC 3 fusion protein was purified using sulphobromophthalein-S-glutathione affinity chromatography (Mozer et al. Biochem. 22, 1983, 1068-1072) while the other WIC fusion proteins were purified using glutathione-agarose (Mannervik and Guthenberg. Methods Enzymol. 77 1981, 231-235).The purified enzymes were then assayed for GST activities toward herbicides (Table 3) and GST activities toward non-herbicide substrates and glutathione peroxidase activities toward organic hydroperoxides (Table 4).
(§3) A polyclonal antiserum was raised in a rabbit to a mixture of TaGST1-2 and TaGST1-3. When tested against crude extracts from safener-treated wheat shoots the antiserum recognised both the 25 kDa TaGST1 subunit and the 26 kDa safener-inducible TaGST2 and TaGST3 subunits. The antiserum was then used in conjunction with the antiserum raised to TaGST1-1 to immuno screen the cDNA library prepared from fenchlorazole ethyl treated wheat shoots as described in example 1. Duplicate lifts were taken from the plated out library and the first blot screened with the antiserum raised against TaGST1-2 and TaGST1-3. The second blot was screened with the antiserum raised to TaGST1-1. Five plaques were identified from the first blot which were absent from the second blot corresponding to cDNAs encoding TaGST2 or TaGST3 like polypeptides and theses clones were purified and the respective plasmids sequenced. […] The other three clones ICC. ICP and ICV had identical DNA sequences (SEQ ID No. 17) and predicted amino acid sequence (SEQ ID No. 18). GST ICJ was sub-cloned into the pET 11a vector after using PCR to introduce a Nde 1 restriction site into the translation start site, using the primer 5′ AGGTAGTTACATATGGCCGGAGGA 3′ (SEQ ID No. 19) in the amplification. following sub-cloning, the sequence of GST ICJ was re-checked to ensure no PCR induced errors had been introduced. The recombinant GST ICJ was then expressed in E. coli and purified by S-hexylglutathione affinity chromatography. The purified GST ICJ was assayed for activities as a GST (Table 3) and as a glutathione peroxidase (Table 4). […] GST ICV was finally expressed as the respective beta-galactosidase fusion protein using the Bluescript plasmid and assayed for GST activity (Table 3 ) and glutathione peroxidase activity (Table 4) in crude bacterial lysates. The specific activity of GST ICV toward these substrates was then calculated by I) subtracting the low levels of GST and GPOX activity present due the endogenous activities in the E. coli and ii) determining the proportion of protein in the lysate present as recombinant GST ICV from SDS-PAGE analysis, by densitometry analysis of polypeptides stained with Coomassie blue.

GST activity toward CDNB = format: biochemical
Method: as §1
To confirm that TaGST1 encoded a GST, it was expressed as a fusion protein with beta-galactosidase using the pBluescript plasmid in E. coli strain SOLR. TaGST1 clones were inoculated into LB liquid medium and were grown overnight at 37/C on all orbital shaker in the presence of IPTG. Bacteria were then pelleted by centrifugation, lysed by sonication and assayed for GST activity toward CDNB and analysed by SDS-PAGE and Western blotting using the anti-TaGSTI-I serum. With all six TaGST1 clones, GST activity toward CDNB could be determined in the crude extracts in the range 30-50 nkat/mg crude lysate.
as §2
as §3, with “The specific activity of GST ICV toward these substrates was then calculated by I) subtracting the low levels of GST and GPOX activity present due the endogenous activities in the E. coli and ii) determining the proportion of protein in the lysate present as recombinant GST ICV from SDS-PAGE analysis, by densitometry analysis of polypeptides stained with Coomassie blue.” left out

[2] = GST activity toward herbicide fluorodifen (HPLC-based assay); format: biochemical
Method: as §1, §2, §3

[3] = GST activity toward benzyl isothiocyanate; format: biochemical; conditions: recombinant wheat GST, affinity purified; ± standard error
Method: as §2

[4] = Glutathione peroxidase activity toward cumene hydroperoxide; format: biochemical; conditions: recombinant wheat GST, affinity purified; ± standard error (n = 3)
Method: as §2, §3

[5] = GST activity toward crotonaldehyde; format: biochemical; conditions: recombinant wheat GST, affinity purified; ± standard error
Method: as §2

[6] = GST activity toward herbicide metolachlor (HPLC-based assay); format: biochemical
Method: as §1, §2, §3

wheat shoots = assay: Enhancement of GST isoenzyme expression in wheat shoots by safener fenchlorazole-ethyl; format: in vivo, Triticum aestivum L. var. Hunter; conditions: for % enhancement by safener: fenchlorazole-ethyl treated (safened) versus unsafened wheat shoots; for Effect of safener fenchlorazole-ethyl on expression: wheat shoots, in words
Method: Wheat seeds (Triticum aestivum L. var. Hunter) were imbibed in a 10 mg/l solution of the herbicide safener fenchlorazole-ethyl and then grown in an environmental growth room with further root-applied watering treatments of 5 mg/l fenchlorazole ethyl applied as required. At 10 days after imbibing, the shoot tissue was harvested and extracted prior to precipitation of the protein with ammonium sulphate (80% saturation). The total protein extract was then applied in the presence of 1 M ammonium sulphate to a phenyl-Sepharose column. The bound GSTs were then recovered, firstly by reducing the ammonium sulphate concentration to 0 M to yield the polar GST fraction, which represented 61% of the recovered activity toward 1-chloro-2,4-dinitrobenzene (CDNB). The remaining 39% of the GST activity was then recovered by adding ethylene glycol (50% v/v) to the running buffer to yield the hydrophobic GST fraction. […] The component polypeptides in the active fractions were then analysed by silver staining after resolution by sodium dodecyl sulphate polyacrylamide gel electrophoresis (SDS-PAGE). It was concluded that in fenchlorazole-ethyl-treated wheat the polar GSTs were composed of 25 kDa and 26 kDa polypeptides, while the hydrophobic fraction contained 25 kDa, 26 kDa and 24 kDa polypeptides. Further analysis by reversed-phase HPLC confirmed the subunit compositions (FIG. 2). Based on the combined analyses by Q-sepharose, HPLC and SDS-PAGE these GST polypeptides were named as described in Table 1, which also contains details of how these subunits associate together to form the active dimers found in plants and the relative abundance of these subunits in extracts from unsafened and fenchlorazole-ethyl treated ([…]) plants.

[7] = recombinant wheat GST expressed in E. coli, affinity purified, ± standard error
[8] = recombinant wheat GST expressed in E. coli, affinity purified
[9] = isoenzymes purified from fenchlorazole-ethyl-treated wheat shoots

| Molecule | GST activity toward fenoxaprop-ethyl [1, 7] | GST activity toward CDNB (GST activity toward CDNB; [8]) | GST activity toward fluorodifen [2, 7] | GST activity toward benzyl isothiocyanate [3] | Glutathione peroxidase activity toward cumene hydroperoxide [4] | GST activity toward crotonaldehyde [5] | GST activity toward metolachlor [6, 7] | GST activity toward fenoxaprop-ethyl [1, 9] | GST activity toward CDNB (GST activity toward CDNB; [9]) | GST activity toward fluorodifen [2, 9] | % enhancement by safener (wheat shoots) | Effect of safener fenchlorazole-ethyl on expression (wheat shoots) | GST activity toward metolachlor [6, 9] |
| --- | --- | --- | --- | --- | --- | --- | --- | --- | --- | --- | --- | --- | --- |
| WIC 1: recombinant type I wheat GST, SEQ ID No. 3, amino acid SEQ ID No. 4 (protein, Triticum aestivum L.) MAAPAVKVYGWAMSPFVARALLCLEEAGVEYELVPMSREAGDHRQPDFLARNPFGQVPVLEDGDLTIFESRAVARHVLRKHKPELLGSGSPESAAMVDVWLEVEAHQHQTPAGTIVMQCILTPFLGCQRDQAAIDENAAKLTNLFDVYEARLSASRYLAGEAVSLADLSHFPFMRYFMDTEYASLVEERPHVKAWWEEFKASPAAKRVTEFMPPNFGFGKKAEK | 0.050 ± 0.010 nkat.mg^−1 | 406.5 nkat.mg^−1 | 0.136 ± 0.011 nkat.mg^−1 | 18.0 ± 3.75 nkat.mg^−1 | 18.6 ± 0.5 absorbance change at 340 nm.mg^−1 | 7.1 ± 0.7 nkat.mg^−1 | 0.315 ± 0.003 nkat.mg^−1 | – | – | – | – | – | – |
| TaGST1-2: wheat GST isoenzyme, heterodimer of TaGST1 and 26 kDa TaGST2 subunits (SEQ ID No. 2/SEQ ID No. 16) (protein, heterodimer; Triticum aestivum L.) chain 1: MAGEKGLVLLDFWVSPFGQRVRIALAEKGLPYEYAEEDLMAGKSDRLLRANPVHKKIPVLLHDGRAVNESLIILQYLEEAFPDAPALLPSDPYARAQARFWADYVDKKVYDCGSRLWKLKGEPQAQARAEMLDILKTLDGALGDKPFFGGDKFGFVDAAFAPFTAWFHSYERYGEFSLPEVAPKIAAWAKRCGERESVAKSLYSPDKVYDFIGLLKKKYGIE chain 2: MAGDGELKLLGVWTSPFVIRVRVVLNLKSLPYEYVEESLGSKSALLLGSNPVHQSVPVLLHGGRPVNESQVIVQYIDEVWAGAGPSVLPADPYERATARFWAAYVDDKVGSAWTGMLFSCKTEEERAEAVSRAVAALETLEGAFAECSKGKAFFGGDAIGFVDVVLGGYLGWFGAIDKIIGRRLIDPARTPLLARWEERFRAADAAKGVVPDDADKMLEFLPTVLAWIAGKAK | – | – | – | – | – | – | – | 0.61 nkat.mg^−1 | 1,441 nkat.mg^−1 | 0.38 nkat.mg^−1 | Only | only observed following treatment with the safener | 0.25 nkat.mg^−1 |
| TaGST1: recombinant wheat GST from TaGST1 cDNA (SEQ ID No. 1, amino acid SEQ ID No. 2) expressed in E. coli (protein, Triticum aestivum L.) MAGEKGLVLLDFWVSPFGQRVRIALAEKGLPYEYAEEDLMAGKSDRLLRANPVHKKIPVLLHDGRAVNESLIILQYLEEAFPDAPALLPSDPYARAQARFWADYVDKKVYDCGSRLWKLKGEPQAQARAEMLDILKTLDGALGDKPFFGGDKFGFVDAAFAPFTAWFHSYERYGEFSLPEVAPKIAAWAKRCGERESVAKSLYSPDKVYDFIGLLKKKYGIE | 0 nkat.mg^−1 | 1970 nkat.mg^−1 | 2.0 ± 0.1 nkat.mg^−1 | 11.8 ± 0 nkat.mg^−1 | 0.7 ± 0.1 absorbance change at 340 nm.mg^−1 | 3.7 ± 0.3 nkat.mg^−1 | 0.127 ± 0.014 nkat.mg^−1 | – | – | – | – | – | – |
| TaGST1-3: wheat GST isoenzyme, heterodimer of TaGST1 and 26 kDa TaGST3 subunits (SEQ ID No. 2/SEQ ID No. 18) (protein, heterodimer; Triticum aestivum L.) chain 1: MAGEKGLVLLDFWVSPFGQRVRIALAEKGLPYEYAEEDLMAGKSDRLLRANPVHKKIPVLLHDGRAVNESLIILQYLEEAFPDAPALLPSDPYARAQARFWADYVDKKVYDCGSRLWKLKGEPQAQARAEMLDILKTLDGALGDKPFFGGDKFGFVDAAFAPFTAWFHSYERYGEFSLPEVAPKIAAWAKRCGERESVAKSLYSPDKVYDFIGLLKKKYGIE chain 2: MAGGEELKLLGWWAPGVSPYVLRAQMALAVKGLSYDYLPEDRWSTSDLLIASNPVYKKVPVLIHNGRPVCESLLILEYLDDAVGLAGNGKPILPADPYSRAVARFWAAYVNDKLFPSCTGILKTTKQEERAGKMEETLSGLRHLEAVMAECSEGEAEAPFFGGDAIGFLDIALGCYLPWFEAAGRLAGLGPIIDPARTPKLAAWAERFSVAEPIKALLPGVDKLEEYITTALYPKWNIAVTGN | – | – | – | – | – | – | – | 0.44 nkat.mg^−1 | 1,700 nkat.mg^−1 | 0.38 nkat.mg^−1 | Only | only observed following treatment with the safener | 0.28 nkat.mg^−1 |
